Data reported in patent US20160193329A1.

Target: Toll-like Receptor 5 (human) (UniProt O60602)
Test: cell-based or functional assay

B1: STF2.HA1 (SI) (protein)
chain: AQVINTNSLSLLTQNNLNKSQSALGTAIERLSSGLRINSAKDDAAGQAIANRFTANIKGLTQASRNANDGISIAQTTEGALNEINNNLQRVRELAVQSANSTNSQSDLDSIQAEITQRLNEIDRVSGQTQFNGVKVLAQDNTLTIQVGANDGETIDIDLKQINSQTLGLDSLNVQKAYDVKDTAVTTKAYANNGTTLDVSGLDDAAIKAATGGTNGTASVTGGAVKFDADNNKYFVTIGGFTGADAAKNGDYEVNVATDGTVTLAAGATKTTMPAGATTKTEVQELKDTPAVVSADAKNALIAGGVDATDANGAELVKMSYTDKNGKTIEGGYALKAGDKYYAADYDEATGAIKAKTTSYTAADGTTKTAANQLGGVDGKTEVVTIDGKTYNASKAAGHDFKAQPELAEAAAKTTENPLQKIDAALAQVDALRSDLGAVQNRFNSAITNLGNTVNNLSEARSRIEDSDYATEVSNMSRAQILQQAGTSVLAQANQVPQNVLSLLAKGIAPLQLGNCSVAGWILGNPECELLISRESWSYIVEKPNPENGTCYPGHFADYEELREQLSSVSSFERFEIFPKESSWPNHTTTGVSASCSHNGESSFYKNLLWLTGKNGLYPNLSKSYANNKEKEVLVLWGVHHPPNIGDQRALYHKENAYVSVVSSHYSRKFTPEIAKRPKVRDQEGRINYYWTLLEPGDTIIFEANGNLIAPRYAFALSRGFGSGIINS
IL-8, Mean Result (ng/nL), HEK 293 cells, lot 1 (reference), well 1: 635 ng/nL
IL-8, Mean Result (ng/nL), HEK 293 cells, lot 1 (reference), well 2: 797
IL-8, Mean Result (ng/nL), HEK 293 cells, lot 1 (reference), well 3: 1070
IL-8, Mean Result (ng/nL), HEK 293 cells, lot 1 (reference), well 4: 1230
IL-8, Mean Result (ng/nL), HEK 293 cells, lot 1 (reference), well 5: 1360
IL-8, Mean Result (ng/nL), HEK 293 cells, lot 1 (reference), well 6: 1540
IL-8, Mean Result (ng/nL), HEK 293 cells, lot 2, well 1: 1460 ng/nL
IL-8, Mean Result (ng/nL), HEK 293 cells, lot 2, well 2: 1590
IL-8, Mean Result (ng/nL), HEK 293 cells, lot 2, well 3: 1610
IL-8, Mean Result (ng/nL), HEK 293 cells, lot 2, well 4: 1300
IL-8, Mean Result (ng/nL), HEK 293 cells, lot 2, well 5: 1380
IL-8, Mean Result (ng/nL), HEK 293 cells, lot 2, well 6: 1090
IL-8, Mean of all wells, HEK 293 cells, lot 1 (reference): 1110
IL-8, Mean of all wells, HEK 293 cells, lot 2: 1410
T/C ratio (IL-8 of lot 2 against the reference lot 1 at about 278 ng/ml): 1.3
